Measured values reported in patent US20230279406A1.

How the values were obtained:
Experiment in all cases: cell-based or functional assay
[1] = biological target: T1, CD374 PV1-RfxCas13d-560C-NLS-BGHpA
T1 sequence: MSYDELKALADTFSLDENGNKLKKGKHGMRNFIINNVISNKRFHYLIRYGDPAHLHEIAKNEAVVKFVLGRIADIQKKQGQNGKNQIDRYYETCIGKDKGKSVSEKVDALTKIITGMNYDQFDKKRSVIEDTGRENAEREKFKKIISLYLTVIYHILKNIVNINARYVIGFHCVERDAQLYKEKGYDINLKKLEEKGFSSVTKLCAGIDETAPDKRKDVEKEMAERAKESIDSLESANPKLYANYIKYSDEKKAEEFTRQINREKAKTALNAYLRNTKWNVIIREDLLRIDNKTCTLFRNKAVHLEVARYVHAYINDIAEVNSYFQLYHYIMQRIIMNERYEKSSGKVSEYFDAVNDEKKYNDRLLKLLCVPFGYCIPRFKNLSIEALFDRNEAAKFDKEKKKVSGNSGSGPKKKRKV

[2] = biological target: T2, CD400 PV1-GAI-L1-RfxCas13d-264C-NLS-BGHpA
T2 sequence: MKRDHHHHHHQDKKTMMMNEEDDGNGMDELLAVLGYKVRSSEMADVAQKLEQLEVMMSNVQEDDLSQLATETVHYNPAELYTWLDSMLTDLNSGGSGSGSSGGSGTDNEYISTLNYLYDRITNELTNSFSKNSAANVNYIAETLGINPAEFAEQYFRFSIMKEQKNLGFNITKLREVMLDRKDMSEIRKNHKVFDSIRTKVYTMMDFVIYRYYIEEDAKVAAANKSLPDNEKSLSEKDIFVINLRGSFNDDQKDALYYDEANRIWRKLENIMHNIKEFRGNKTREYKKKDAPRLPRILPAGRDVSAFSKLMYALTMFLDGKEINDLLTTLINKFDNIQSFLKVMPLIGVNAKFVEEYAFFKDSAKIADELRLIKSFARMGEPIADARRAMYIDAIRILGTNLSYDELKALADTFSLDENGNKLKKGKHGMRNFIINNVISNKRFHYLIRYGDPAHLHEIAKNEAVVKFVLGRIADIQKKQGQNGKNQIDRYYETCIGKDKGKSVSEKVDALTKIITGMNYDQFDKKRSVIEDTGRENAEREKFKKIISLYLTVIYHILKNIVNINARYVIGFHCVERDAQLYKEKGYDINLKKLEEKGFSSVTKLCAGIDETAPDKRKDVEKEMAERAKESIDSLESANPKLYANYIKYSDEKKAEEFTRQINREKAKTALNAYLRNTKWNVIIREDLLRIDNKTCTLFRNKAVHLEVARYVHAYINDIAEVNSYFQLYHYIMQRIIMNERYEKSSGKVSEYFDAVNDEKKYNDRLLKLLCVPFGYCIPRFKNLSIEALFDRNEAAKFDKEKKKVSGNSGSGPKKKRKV

[3] = biological target: T3, CD246 PV1-GAI-L1-RfxCas13d-566C-NLS-BGHpA
T3 sequence: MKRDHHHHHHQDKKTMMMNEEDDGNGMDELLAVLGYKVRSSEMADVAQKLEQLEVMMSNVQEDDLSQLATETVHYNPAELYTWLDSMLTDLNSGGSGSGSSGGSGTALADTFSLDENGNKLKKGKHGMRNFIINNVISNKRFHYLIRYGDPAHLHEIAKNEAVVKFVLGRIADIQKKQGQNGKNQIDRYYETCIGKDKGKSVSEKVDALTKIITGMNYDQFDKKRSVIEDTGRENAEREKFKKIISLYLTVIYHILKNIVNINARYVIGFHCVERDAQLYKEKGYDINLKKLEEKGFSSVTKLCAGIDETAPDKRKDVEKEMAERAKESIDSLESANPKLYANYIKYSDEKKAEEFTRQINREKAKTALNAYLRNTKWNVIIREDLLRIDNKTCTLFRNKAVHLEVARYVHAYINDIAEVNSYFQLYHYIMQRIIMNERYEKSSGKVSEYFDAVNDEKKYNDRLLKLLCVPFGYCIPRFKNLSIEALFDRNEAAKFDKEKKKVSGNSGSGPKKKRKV

[4] = biological target: T4, CD244 PV1-GAI-L1-RfxCas13d-560C-NLS-BGHpA
T4 sequence: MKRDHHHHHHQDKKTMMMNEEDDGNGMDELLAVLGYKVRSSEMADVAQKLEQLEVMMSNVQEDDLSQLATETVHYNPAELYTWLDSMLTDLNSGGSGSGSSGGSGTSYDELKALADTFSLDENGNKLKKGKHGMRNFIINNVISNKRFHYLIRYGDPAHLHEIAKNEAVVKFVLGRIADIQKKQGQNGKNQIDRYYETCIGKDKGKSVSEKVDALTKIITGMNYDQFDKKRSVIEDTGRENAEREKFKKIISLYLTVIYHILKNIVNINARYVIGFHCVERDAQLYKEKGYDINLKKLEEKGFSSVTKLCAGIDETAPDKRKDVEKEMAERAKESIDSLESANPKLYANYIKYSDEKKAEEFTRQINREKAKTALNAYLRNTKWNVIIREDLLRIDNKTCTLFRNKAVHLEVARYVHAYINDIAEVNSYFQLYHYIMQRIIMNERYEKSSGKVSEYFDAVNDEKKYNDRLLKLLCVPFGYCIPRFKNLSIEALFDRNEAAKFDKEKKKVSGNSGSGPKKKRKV

[5] = biological target: CD92 PV1-CaffVHH-L1-iCre-271C-NLS-BGHpA
Chain of CD92 PV1-CaffVHH-L1-iCre-271C-NLS-BGHpA (chain, as listed by the source): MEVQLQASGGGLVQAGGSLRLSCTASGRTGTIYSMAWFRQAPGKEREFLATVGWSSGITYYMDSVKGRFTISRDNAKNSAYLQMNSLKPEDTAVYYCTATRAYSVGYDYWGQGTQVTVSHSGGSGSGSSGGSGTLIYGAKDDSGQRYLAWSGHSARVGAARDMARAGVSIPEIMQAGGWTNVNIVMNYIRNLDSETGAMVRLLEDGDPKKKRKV

B1: CD373 PV1-RfxCas13d-N559-NLS-BGHpA (protein)
chain: MIEKKKSFAKGMGVKSTLVSGSKVYMTTFAEGSDARLEKIVEGDSIRSVNEGEAFSAEMADKNAGYKIGNAKFSHPKGYAVVANNPLYTGPVQQDMLGLKETLEKRYFGESADGNDNICIQVIHNILDIEKILAEYITNAAYAVNNISGLDKDIIGFGKFSTVYTYDEFKDPEHHRAAFNNNDKLINAIKAQYDEFDNFLDNPRLGYFGQAFFSKEGRNYIINYGNECYDILALLSGLRHWVVHNNEEESRISRTWLYNLDKNLDNEYISTLNYLYDRITNELTNSFSKNSAANVNYIAETLGINPAEFAEQYFRFSIMKEQKNLGFNITKLREVMLDRKDMSEIRKNHKVFDSIRTKVYTMMDFVIYRYYIEEDAKVAAANKSLPDNEKSLSEKDIFVINLRGSFNDDQKDALYYDEANRIWRKLENIMHNIKEFRGNKTREYKKKDAPRLPRILPAGRDVSAFSKLMYALTMFLDGKEINDLLTTLINKFDNIQSFLKVMPLIGVNAKFVEEYAFFKDSAKIADELRLIKSFARMGEPIADARRAMYIDAIRILGTNLPKKKRKV
[1]
  gRNA induced mCherry knockdown efficiency, no CID domain: < 80%

B2: CD399 PV1-RfxCas13d-N263-L1-GID-NLS-BGHpA (protein)
chain: MIEKKKSFAKGMGVKSTLVSGSKVYMTTFAEGSDARLEKIVEGDSIRSVNEGEAFSAEMADKNAGYKIGNAKFSHPKGYAVVANNPLYTGPVQQDMLGLKETLEKRYFGESADGNDNICIQVIHNILDIEKILAEYITNAAYAVNNISGLDKDIIGFGKFSTVYTYDEFKDPEHHRAAFNNNDKLINAIKAQYDEFDNFLDNPRLGYFGQAFFSKEGRNYIINYGNECYDILALLSGLRHWVVHNNEEESRISRTWLYNLDKNLSGGSGSGSSGGSGTMAASDEVNLIESRTVVPLNTWVLISNFKVAYNILRRPDGTFNRHLAEYLDRKVTANANPVDGVFSFDVLIDRRINLLSRVYRPAYADQEQPPSILDLEKPVDGDIVPVILFFHGGSFAHSSANSAIYDTLCRRLVGLCKCVVVSVNYRRAPENPYPCAYDDGWIALNWVNSRSWLKSKKDSKVHIFLAGDSSGGNIAHNVALRAGESGIDVLGNILLNPMFGGNERTESEKSLDGKYFVTVRDRDWYWKAFLPEGEDREHPACNPFSPRGKSLEGVSFPKSLVVVAGLDLIRDWQLAYAEGLKKAGQEVKLMHLEKATVGFYLLPNNNHFHNVMDEISAFVNAECPKKKRKV
[2]
  mCherry knockdown efficiency with GIB CID domains: > 60%

B3: CD245 PV1-RfxCas13d-N565-L1-GID-NLS-BGHpA (protein)
chain: MIEKKKSFAKGMGVKSTLVSGSKVYMTTFAEGSDARLEKIVEGDSIRSVNEGEAFSAEMADKNAGYKIGNAKFSHPKGYAVVANNPLYTGPVQQDMLGLKETLEKRYFGESADGNDNICIQVIHNILDIEKILAEYITNAAYAVNNISGLDKDIIGFGKFSTVYTYDEFKDPEHHRAAFNNNDKLINAIKAQYDEFDNFLDNPRLGYFGQAFFSKEGRNYIINYGNECYDILALLSGLRHWVVHNNEEESRISRTWLYNLDKNLDNEYISTLNYLYDRITNELTNSFSKNSAANVNYIAETLGINPAEFAEQYFRFSIMKEQKNLGFNITKLREVMLDRKDMSEIRKNHKVFDSIRTKVYTMMDFVIYRYYIEEDAKVAAANKSLPDNEKSLSEKDIFVINLRGSFNDDQKDALYYDEANRIWRKLENIMHNIKEFRGNKTREYKKKDAPRLPRILPAGRDVSAFSKLMYALTMFLDGKEINDLLTTLINKFDNIQSFLKVMPLIGVNAKFVEEYAFFKDSAKIADELRLIKSFARMGEPIADARRAMYIDAIRILGTNLSYDELKSGGSGSGSSGGSGTMAASDEVNLIESRTVVPLNTWVLISNFKVAYNILRRPDGTFNRHLAEYLDRKVTANANPVDGVFSFDVLIDRRINLLSRVYRPAYADQEQPPSILDLEKPVDGDIVPVILFFHGGSFAHSSANSAIYDTLCRRLVGLCKCVVVSVNYRRAPENPYPCAYDDGWIALNWVNSRSWLKSKKDSKVHIFLAGDSSGGNIAHNVALRAGESGIDVLGNILLNPMFGGNERTESEKSLDGKYFVTVRDRDWYWKAFLPEGEDREHPACNPFSPRGKSLEGVSFPKSLVVVAGLDLIRDWQLAYAEGLKKAGQEVKLMHLEKATVGFYLLPNNNHFHNVMDEISAFVNAECPKKKRKV
[3]
  mCherry knockdown with gRNA and gibberellin (drug-induced): > 75%
  mCherry knockdown with gRNA, without gibberellin (basal): 10 to 20%

B4: CD243 PV1-RfxCas13d-N559-L1-GID-NLS-BGHpA (protein)
chain: MIEKKKSFAKGMGVKSTLVSGSKVYMTTFAEGSDARLEKIVEGDSIRSVNEGEAFSAEMADKNAGYKIGNAKFSHPKGYAVVANNPLYTGPVQQDMLGLKETLEKRYFGESADGNDNICIQVIHNILDIEKILAEYITNAAYAVNNISGLDKDIIGFGKFSTVYTYDEFKDPEHHRAAFNNNDKLINAIKAQYDEFDNFLDNPRLGYFGQAFFSKEGRNYIINYGNECYDILALLSGLRHWVVHNNEEESRISRTWLYNLDKNLDNEYISTLNYLYDRITNELTNSFSKNSAANVNYIAETLGINPAEFAEQYFRFSIMKEQKNLGFNITKLREVMLDRKDMSEIRKNHKVFDSIRTKVYTMMDFVIYRYYIEEDAKVAAANKSLPDNEKSLSEKDIFVINLRGSFNDDQKDALYYDEANRIWRKLENIMHNIKEFRGNKTREYKKKDAPRLPRILPAGRDVSAFSKLMYALTMFLDGKEINDLLTTLINKFDNIQSFLKVMPLIGVNAKFVEEYAFFKDSAKIADELRLIKSFARMGEPIADARRAMYIDAIRILGTNLSGGSGSGSSGGSGTMAASDEVNLIESRTVVPLNTWVLISNFKVAYNILRRPDGTFNRHLAEYLDRKVTANANPVDGVFSFDVLIDRRINLLSRVYRPAYADQEQPPSILDLEKPVDGDIVPVILFFHGGSFAHSSANSAIYDTLCRRLVGLCKCVVVSVNYRRAPENPYPCAYDDGWIALNWVNSRSWLKSKKDSKVHIFLAGDSSGGNIAHNVALRAGESGIDVLGNILLNPMFGGNERTESEKSLDGKYFVTVRDRDWYWKAFLPEGEDREHPACNPFSPRGKSLEGVSFPKSLVVVAGLDLIRDWQLAYAEGLKKAGQEVKLMHLEKATVGFYLLPNNNHFHNVMDEISAFVNAECPKKKRKV
[4]
  mCherry knockdown with gRNA and gibberellin (drug-induced): > 75%
  mCherry knockdown with gRNA, without gibberellin (basal): 10 to 20%

B5: CD91 PV1-iCre-N270-L1-CaffVHH-NLS-BGHpA (protein)
chain: MSNLLTVHQNLPALPVDATSDEVRKNLMDMFRDRQAFSEHTWKMLLSVCRSWAAWCKLNNRKWFPAEPEDVRDYLLYLQARGLAVKTIQQHLGQLNMLHRRSGLPRPSDSNAVSLVMRRIRKENVDAGERAKQALAFERTDFDQVRSLMENSDRCQDIRNLAFLGIAYNTLLRIAEIARIRVKDISRTDGGRMLIHIGRTKTLVSTAGVEKALSLGVTKLVERWISVSGVADDPNNYLFCRVRKNGVAAPSATSQLSTRALEGIFEATHRSGGSGSGSSGGSGTMEVQLQASGGGLVQAGGSLRLSCTASGRTGTIYSMAWFRQAPGKEREFLATVGWSSGITYYMDSVKGRFTISRDNAKNSAYLQMNSLKPEDTAVYYCTATRAYSVGYDYWGQGTQVTVSHPKKKRKV
[5]
  Cre reporter expression (share of transfected cells), 25 uM caffeine for 5 hours (% of transfected cells): 30
  Cre reporter turned on (share of transfected cells), caffeine at least 50 uM, induction at least 5 hours (% transfected cells): 38
  Cre reporter turned on (share of transfected cells), caffeine induction, 48 hours (% transfected cells): > 80
